Measurements as given in patent publication EP4722246A1 (Inxmed (Nanjing) Co., Ltd., dated 2024).

What was measured:
[1] = molecular target: human TEM8 on CHO-hTEM8 cells (human, UniProt Q9H6X2 33-564); test: FACS on CHO-hTEM8 cells
[2] = molecular target: T1, mouse TEM8 on CHO-mTEM8 cells (mouse, UniProt Q9CZ52 31-562); test: FACS on CHO-mTEM8 cells
T1 construct: also called murine TEM8
T1 sequence (Q9CZ52 31-562): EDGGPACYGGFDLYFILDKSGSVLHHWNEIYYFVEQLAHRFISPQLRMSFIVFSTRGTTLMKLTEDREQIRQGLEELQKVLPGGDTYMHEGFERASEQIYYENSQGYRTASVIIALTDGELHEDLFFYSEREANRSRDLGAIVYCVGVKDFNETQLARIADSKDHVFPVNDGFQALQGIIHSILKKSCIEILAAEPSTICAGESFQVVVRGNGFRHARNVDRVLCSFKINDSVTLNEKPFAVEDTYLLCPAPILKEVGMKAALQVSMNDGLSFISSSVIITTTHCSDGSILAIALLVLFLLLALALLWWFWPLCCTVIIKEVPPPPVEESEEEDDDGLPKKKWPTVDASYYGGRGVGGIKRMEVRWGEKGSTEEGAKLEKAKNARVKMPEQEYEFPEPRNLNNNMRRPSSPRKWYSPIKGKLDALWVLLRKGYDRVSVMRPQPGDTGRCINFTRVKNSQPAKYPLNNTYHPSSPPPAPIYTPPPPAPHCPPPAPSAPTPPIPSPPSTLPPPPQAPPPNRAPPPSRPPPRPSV

Binder	EC50 [1]	EC50 [2]
3A3 (antibody, human IgG1, kappa, L234A L235A, V domains shown, Full IgG made in CHO cells: variable regions joined to the IgG heavy chain constant region and the kappa constant region; also called TEM8-3A3) VH: QVQLVQSGPEVKKPGAPVKISCKTSGYIFDDYGITWVRQAPGQGLEWLGWISTYNGKTSFAQKVQGRLTMTTDISTNTASMELRGLRSDDTALYYCARVFSRYIPFYFDSWGQGTLVTVSS VL: not shown	0.71 nM	1.48 nM
3B3 (antibody, human IgG1, kappa, L234A L235A, V domains shown, Full IgG made in CHO cells, kappa constant region; also called TEM8-3B3) VH: EVQLVQSGGGLVKPGGSLRLSCAASGFTFSSYSMNWVRQAPGKGLEWVSSISSSSSYIYYADSVKGRFTISRDNAKNSLYLQMNSLRAEDTAVYYCARVRPPYGMDVWGQGTLVTVSS VL: NIQMTQSPSSVSASVGDTVTISCRASQGISNWLGWYQQRPGEAPKLLIYAASHLQSGVPSRFSGSGSGTDFVLTITSLQPEDFATYYCQQSNSFPLAFGGGTKLEIKR	1.51 nM	2.14 nM

Continued, values first:

EC50 [1]	EC50 [2]	Binder
0.63 nM	1.16 nM	6A6Q (antibody, human IgG1, lambda, L234A L235A, V domains shown, Full IgG made in CHO cells, lambda constant region; Variant of 6A6 whose light chain glycosylation site NRS was mutated to QRS; also called TEM8-6A6Q) VH: EVQLVESGGGVVQPGGSLRLSCAASGFTFDDYAMHWVRQAPGKGLEWVSLISGDGGSTYYADSVKGRFTISRDNSKNSLYLQMNSLKASDTAMYYCARPRWGRYSSSWPFDYWGQGTLVTVSS VL: QSALTQPASVSGSPGQSITISCTGTSSDVGTYNYVSWYQQHPGKAPKLMIYDVTDRPSGISNRFSGSKSGNTASLTISGLQAEDEGNYYCSSYTSQRSWVFGGGTKLTVLG
0.85 nM	1.21 nM	11B7 (antibody, human IgG1, lambda, L234A L235A, V domains shown, Full IgG made in CHO cells, lambda constant region; also called TEM8-11B7) VH: QVQLVQSGGGVVQPGRPLRLSCAASGFNLGSYAMSWVRQAPGKGLEWVSAISGSGGSTYYADSVKGRFTISRDNSKNTLYLQMNSLRAEDTAVYYCAKILGPGNLNYYYYYGMDVWGQGTTVTVSS VL: SSELTQDPAVSVALGQTVRITCQGDSLRNSYASWYQQKPGQAPVLVIYGNNNRPSGIPDRVSGSRSGNTASLTITGAQAEDEADYYCNSRDSSGNHVVFGGGTELTVLG
0.75 nM	1.41 nM	7E3 (antibody, human IgG1, lambda, L234A L235A, V domains shown, Full IgG made in CHO cells, lambda constant region; also called TEM8-7E3) VH: QVQLVESGGGLVNPGGSLRLSCAVSGFTSSGFSINWVRQAPGKGLEWVSSISGIGDSIFYADSVKGRFTISRDNAKNLVFLQMNSVKAEDTAVYYCVRDKWGWGTYSLFDYWGQGTLVTVSS VL: QAVLTQPPSASGTPGQRVTISCSGSSSNIASNVVSWYQQLPGTAPKVLIYSNNRRPSGVPDRFSGSKSGASASLAISGLQSDDETHYYCAAWDDSLKGPVFGGGTQLTVLG
